The results in this text go back to PMC6476560 (PLoS ONE, 2019).

The chains are these.
B1: Pup-Icl1-Fl (fluorescein-labelled pupylated isocitrate lyase 1 Icl1) (complex)
chain 1: MSVVGTPKSAEQIQQEWDTNPRWKDVTRTYSAEDVVALQGSVVEEHTLARRGAEVLWEQLHDLEWVNALGALTGNMAVQQVRAGLKAIYLSGWQVAGDANLSGHTYPDQSLYPANSVPQVVRRINNALQRADQIAKIEGDTSVENWLAPIVADGEAGFGGALNVYELQKALIAAGVAGSHWEDQLASEKKCGHLGGKVLIPTQQHIRTLTSARLAADVADVPTVVIARTDAEAATLITSDVDERDQPFITGERTREGFYRTKNGIEPCIARAKAYAPFADLIWMETGTPDLEAARQFSEAVKAEYPDQMLAYNCSPSFNWKKHLDDATIAKFQKELAAMGFKFQFITLAGFHALNYSMFDLAYGYAQNQMSAYVELQEREFAAEERGYTATKHQREVGAGYFDRIATTVDPNSSTTALTGSTEEGQFH
chain 2: MAQEQTKRGGGGGDDDDIAGSTAAGQERREKLTEETDDLLDEIDDVLEENAEDFVRAYVQKGGE
notes: copies: 4 + 2
B2: Pup-Icl1 (pupylated isocitrate lyase 1 Icl1), unlabelled (complex)
chain 1: B1 chain 1
chain 2: B1 chain 2
notes: copies: 4 + 2
B3: wild-type MtbMpa (mycobacterial proteasomal ATPase), hexamer (enzyme)
chain: MGESERSEAFGIPRDSPLSSGDAAELEQLRREAAVLREQLENAVGSHAPTRSARDIHQLEARIDSLAARNSKLMETLKEARQQLLALREEVDRLGQPPSGYGVLLATHDDDTVDVFTSGRKMRLTCSPNIDAASLKKGQTVRLNEALTVVEAGTFEAVGEISTLREILADGHRALVVGHADEERVVWLADPLIAEDLPDGLPEALNDDTRPRKLRPGDSLLVDTKAGYAFERIPKAEVEDLVLEEVPDVSYADIGGLSRQIEQIRDAVELPFLHKELYREYSLRPPKGVLLYGPPGCGKTLIAKAVANSLAKKMAEVRGDDAHEAKSYFLNIKGPELLNKFVGETERHIRLIFQRAREKASEGTPVIVFFDEMDSIFRTRGTGVSSDVETTVVPQLLSEIDGVEGLENVIVIGASNREDMIDPAILRPGRLDVKIKIERPDAEAAQDIYSKYLTEFLPVHADDLAEFDGDRSACIKAMIEKVVDRMYAEIDDNRFLEVTYANGDKEVMYFKDFNSGAMIQNVVDRAKKNAIKSVLETGQPGLRIQHLLDSIVDEFAENEDLPNTTNPDDWARISGKKGERIVYIRTLVTGKSSSASRAIDTESNLGQYL

Common to all, as to assay: MST
What all share (conditions): both partners purified

For assay [1], the target named is B3.
For assay [2], the target named is T1, fluorescently labelled Dop (deamidase of Pup; depupylase) (UniProt P9WNU9 1-505).
T1 sequence: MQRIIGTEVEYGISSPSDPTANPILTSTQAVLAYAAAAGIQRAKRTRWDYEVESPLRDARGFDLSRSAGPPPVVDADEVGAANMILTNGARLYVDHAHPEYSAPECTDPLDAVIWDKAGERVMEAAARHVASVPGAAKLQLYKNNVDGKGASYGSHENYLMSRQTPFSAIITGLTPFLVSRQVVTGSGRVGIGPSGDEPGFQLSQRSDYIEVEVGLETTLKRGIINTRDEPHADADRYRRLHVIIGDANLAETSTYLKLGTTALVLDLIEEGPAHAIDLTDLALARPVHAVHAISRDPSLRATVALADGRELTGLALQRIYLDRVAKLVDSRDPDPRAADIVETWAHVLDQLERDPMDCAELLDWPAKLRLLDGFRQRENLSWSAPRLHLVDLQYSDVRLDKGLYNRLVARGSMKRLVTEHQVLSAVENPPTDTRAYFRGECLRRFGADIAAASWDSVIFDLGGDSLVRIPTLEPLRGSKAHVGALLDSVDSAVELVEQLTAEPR

For assay [3], the target named is Pup-PckA-Fl (fluorescein-labelled pupylated phosphoenolpyruvate carboxykinase PckA) (Mycobacterium tuberculosis, UniProt P9WIH3;P9WHN5, PupE (C-terminal glutamine as glutamate)).

As to B1, the equilibrium dissociation constant (Kd) in assay [1] turned out to be 160 ± 30 nM.

Molecule B2 came in with a Kd in assay [2] of 129 ± 41 nM. Turning to B3, in assay [3], the Kd was 210 ± 100 nM.

The term Kd denotes the constant that tells how readily two partners part at equilibrium. Read a low Kd as tighter binding.
